According to article PMC3206076, “Structural, Stability, Dynamic and Binding Properties of the ALS-Causing T46I Mutant of the hVAPB MSP Domain as Revealed by NMR and MD Simulations” (PLoS ONE, 2011):

B1: Nir2 peptide (EEEFFDAHE) (peptide)
peptide: EEEFFDAHE
notes: FFAT-motif peptide of the Nir2 protein; also called the peptide; source: synthetic peptide, bought: Genesis Biotech Inc., further purified by HPLC (reverse-phase C18)

Experiments:
[1] = target: Nir2 peptide FFAT motif (Homo sapiens) (UniProt O00562); assay: ITC; conditions: cited from earlier work
[2] = target: T46I mutant of the hVAPB MSP domain (human, UniProt O95292 1-125, T46I); assay: ITC
Target sequence in this assay (O95292 1-125 T46I): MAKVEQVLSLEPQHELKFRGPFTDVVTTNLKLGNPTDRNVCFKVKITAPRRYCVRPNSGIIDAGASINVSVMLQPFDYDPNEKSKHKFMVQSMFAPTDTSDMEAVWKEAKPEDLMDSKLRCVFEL

[3] = target: T1, wild-type (WT) hVAPB MSP domain (residues 1–125) (human, UniProt O95292 1-125); assay: NMR titration; 1H-15N HSQC of 15N-labeled WT-/T46I-MSP (100 µM) without or with unlabeled Nir2 peptide or EphA4 at molar ratios 1:0.5 to 1:8; 10 mM phosphate buffer, pH 6.8, 25°C; conditions: both partners purified
T1 construct: human VAPB (vesicle-associated membrane protein-associated protein B), MSP domain, residues 1-125; 15N-labelled for the HSQC titrations in which its own spectrum was observed; also called WT-MSP domain; WT-MSP
T1 sequence (O95292 1-125): as the sequence (O95292 1-125 T46I) above, with I46T counted along it

[4] = target: T2, T46I mutant of the hVAPB MSP domain (human, UniProt O95292 1-125, T46I); assay: ITC; Microcal VP; peptide or EphA4 (300 µM) in the syringe, MSP protein (10 µM) in the cell; 50 mM Tris-HCl, 150 mM NaCl, 2 mM DTT, pH 7.5, 25°C; single binding site model; conditions: both partners purified
T2 construct: human VAPB MSP domain, residues 1-125, with the ALS-causing T46I mutation found in non-Brazilian kindred; Made by site-directed mutagenesis on the WT-MSP construct; PDB 3IKK is the structure of the WT parent; 15N-labelled for the HSQC titrations in which its own spectrum was observed; also called T46I-MSP domain; T46I-MSP
T2 sequence (O95292 1-125 T46I): as the sequence (O95292 1-125 T46I) above

Row | Molecule | Kd [1] | Ka [2] | binding result [3] | Kd [4]
1 | VAPB MSP (from UniProt O95292) | 650 nM | – | – | –
2 | B1 | – | 455000 M⁻¹ | binds | 2200 nM
